Assay results as given in PMC13044922, “Molecular structure and nickel-binding capacity of Proteus mirabilis UreE” (Acta Crystallographica Section D: Structural Biology, 2026).

Target: the molecule itself
Test: SEC; HiLoad 16/600 Superdex 75, 20 mM HEPES pH 7.5, 100 mM NaCl with or without 1 mM EDTA, 277 K; elution volume compared with molecular weight

Protein | stoichiometry N
Proteus mirabilis UreE (natural protein, Cloned from strain ATCC 12453; In the crystal the models end at residue 147 (chain A) and 144 (chain B); the C-terminal tails are not resolved; also called PmUreE; full-length PmUreE) MKKFTQIIDQQKALELTSTEKPKLTLCLTMDERTKSRLKVALSDGQEAGLFLPRGTVLKEGDILLSEEGDVVTIEAAKEQVSTVYSDDPLLLARVCYHLGNRHVPLQIEAGWCRYFHDHVLDDMARGLGATVVVGLEKYQPEPGAYGGSSGGHHHHHDHHH | ~2
PmUreE-ΔC17 (domain or fragment, UreE of Proteus mirabilis ATCC 12453 with a stop codon inserted after Gly144 (lacks the last 17 residues, the histidine-rich C-terminus); Made from the full-length construct of m1 by a stop codon after Gly144; also called PmUreE-ΔC17 truncation mutant; C-terminally truncated mutant of PmUreE; source: E. coli BL21 (DE3), purified (Ni-NTA, SEC)) MKKFTQIIDQQKALELTSTEKPKLTLCLTMDERTKSRLKVALSDGQEAGLFLPRGTVLKEGDILLSEEGDVVTIEAAKEQVSTVYSDDPLLLARVCYHLGNRHVPLQIEAGWCRYFHDHVLDDMARGLGATVVVGLEKYQPEPG | 2
